Data on one molecule can be found in patent publication US7247611 (University of Pennsylvania, dated 2007).

The assay deals with T1, single chain urokinase-type plasminogen activator (UniProt P00749 21-431, radiolabeled with 125I (iodobeads) in the binding assays).
T1 construct: scuPA alone, without peptide; also called scuPA; recombinant scuPA
In words: 125I-scuPA on LM-TK- cells with peptide (FIG. 1A); indirect read-out of the peptide acting on scuPA. The method, then: The cells were washed four times with binding buffer, solubilized in 0.1 N NaOH, and the cell extract was assessed for radioactivity. […] Assays were repeated at least three times, and data presented herein represent the mean and standard deviation.

B1: peptide EEIIMR (SEQ ID NO: 5) (peptide)
peptide: EEIIMR
notes: Synthetic variant of EEIIMD with Arg at the carboxyl terminus; also called control peptide EEIIMR
Turning to B1, the “scuPA-binding-promoting activity relative to peptide EEIIMD” value is about 20%.
